Laboratory results from patent US20210340272A1 (ANWITA BIOSCIENCES, published 2021).

Legend:
[1] = target: T1, cell surface mesothelin on human cancer cell lines NCI-H226, OVCAR3, NCI-N87 and AsPC-1 (human, UniProt Q13421 296-598); assay: flow cytometry on NCI-H226 cells; Alexa Fluor 488 anti-human IgG secondary antibody
T1 construct: whole, on cells
Protocol: (§1) After washing, cells were incubated with Alexa Fluor 488 conjugated secondary antibody (anti-human IgG, Life Technologies) for 20 minutes at 4C. Cells were washed and then fluorescence intensity of the cells was quantified by flow cytometry.

[2] = target: T1, cell surface mesothelin on human cancer …; assay: flow cytometry on NCI-N87 cells; Alexa Fluor 488 anti-human IgG secondary antibody
Protocol: as §1

[3] = target: T1, cell surface mesothelin on human cancer …; assay: flow cytometry on AsPC-1 cells; Alexa Fluor 488 anti-human IgG secondary antibody
Protocol: as §1

T1 sequence (Q13421 other isoform, or with tags, fused parts or gaps limits assumed): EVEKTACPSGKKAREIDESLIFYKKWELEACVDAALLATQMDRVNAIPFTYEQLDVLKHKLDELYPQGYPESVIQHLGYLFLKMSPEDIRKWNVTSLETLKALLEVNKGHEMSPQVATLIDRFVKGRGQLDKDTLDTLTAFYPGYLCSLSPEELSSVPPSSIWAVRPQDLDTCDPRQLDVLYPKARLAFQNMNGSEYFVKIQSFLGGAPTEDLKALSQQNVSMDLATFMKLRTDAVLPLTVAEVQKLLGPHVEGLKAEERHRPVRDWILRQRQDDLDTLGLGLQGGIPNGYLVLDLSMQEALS

B1: R3C7 (original llama VHH, Anti-MSLN-6) as human IgG1 Fc fusion (Fc fusion)
chain: QVQLVESGGGLVEAGDSLRLSCVVSGRTLESYVMAWFRQAPGKEREAVASINWSSGRLIYADFVKGRFTISRDYEKNTIYLSMNNLKPEDTAVYYCAAGRYWGQGTQVTVSS
notes: also called R3-E08(C7); not shown: human IgG1 Fc (hIgG1 Fc)
Question: How did the “EC50 (read off the curve)” value [1] turn out when B1 was run?
Answer: The value was ~10 ng/mL.

Question: What about the “EC50 (read off the curve)” value [2] of the same binder?
Answer: Its value is ~4 ng/mL.

Question: And the “EC50 (read off the curve)” value [3]?
Answer: Its value is ~6 ng/mL.

B2: R2G12 (original llama VHH, Anti-MSLN-9) as human IgG1 Fc fusion (Fc fusion)
chain: QVQLVESGGGLVQAGGSLRLSCAASGITFPVNAYGWYRQAPGKQRDLVAIISAGGTTNYADSVKGRFAISKDNVNNTVYLQMNSLTSEDTGVYYCYLQRRIGMLRDYWGQGTQVTVSS
notes: also called R2-G06(G12); not shown: human IgG1 Fc (hIgG1 Fc)
Question: B2 was tested. Which “EC50 (read off the curve)” value [1] did it give?
Answer: Its value is ~10 ng/mL.

Question: What about the “EC50 (read off the curve)” value [2] of the same binder?
Answer: Its value is ~5 ng/mL.

Question: And the “EC50 (read off the curve)” value [3]?
Answer: Its value is ~7 ng/mL.
